The data set deals with MRN (MRE11-RAD50-NBS1) wild type (Homo sapiens, UniProt P49959;Q92878;O60934 1-708;1-1312;1-754). The data set can be described thus: pull-down, immunoblot. (In general: In western blotting, separated proteins are transferred to a membrane and probed.)
Chain of MRN (MRE11-RAD50-NBS1) wild type (P49959 whole entry, chain 1 of 3): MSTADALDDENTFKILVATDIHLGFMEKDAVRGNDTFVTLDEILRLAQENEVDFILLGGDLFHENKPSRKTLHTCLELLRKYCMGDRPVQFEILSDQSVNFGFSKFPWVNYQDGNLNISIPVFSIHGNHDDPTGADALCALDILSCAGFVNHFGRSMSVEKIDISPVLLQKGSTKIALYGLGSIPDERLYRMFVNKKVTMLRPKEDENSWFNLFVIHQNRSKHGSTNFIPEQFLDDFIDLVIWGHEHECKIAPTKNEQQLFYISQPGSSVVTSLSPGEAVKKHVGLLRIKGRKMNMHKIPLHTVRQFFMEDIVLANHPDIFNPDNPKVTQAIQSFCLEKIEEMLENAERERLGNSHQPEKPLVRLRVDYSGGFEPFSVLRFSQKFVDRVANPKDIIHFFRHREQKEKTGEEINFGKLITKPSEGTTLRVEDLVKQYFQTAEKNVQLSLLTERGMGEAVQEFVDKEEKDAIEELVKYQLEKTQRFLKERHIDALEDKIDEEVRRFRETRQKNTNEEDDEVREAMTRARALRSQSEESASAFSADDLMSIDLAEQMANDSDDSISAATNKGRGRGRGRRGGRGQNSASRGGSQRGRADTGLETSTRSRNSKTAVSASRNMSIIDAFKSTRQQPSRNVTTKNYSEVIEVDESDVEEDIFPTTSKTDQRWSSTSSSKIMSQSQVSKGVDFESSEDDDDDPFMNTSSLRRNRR
Chain of MRN (MRE11-RAD50-NBS1) wild type (Q92878 whole entry, chain 2 of 3): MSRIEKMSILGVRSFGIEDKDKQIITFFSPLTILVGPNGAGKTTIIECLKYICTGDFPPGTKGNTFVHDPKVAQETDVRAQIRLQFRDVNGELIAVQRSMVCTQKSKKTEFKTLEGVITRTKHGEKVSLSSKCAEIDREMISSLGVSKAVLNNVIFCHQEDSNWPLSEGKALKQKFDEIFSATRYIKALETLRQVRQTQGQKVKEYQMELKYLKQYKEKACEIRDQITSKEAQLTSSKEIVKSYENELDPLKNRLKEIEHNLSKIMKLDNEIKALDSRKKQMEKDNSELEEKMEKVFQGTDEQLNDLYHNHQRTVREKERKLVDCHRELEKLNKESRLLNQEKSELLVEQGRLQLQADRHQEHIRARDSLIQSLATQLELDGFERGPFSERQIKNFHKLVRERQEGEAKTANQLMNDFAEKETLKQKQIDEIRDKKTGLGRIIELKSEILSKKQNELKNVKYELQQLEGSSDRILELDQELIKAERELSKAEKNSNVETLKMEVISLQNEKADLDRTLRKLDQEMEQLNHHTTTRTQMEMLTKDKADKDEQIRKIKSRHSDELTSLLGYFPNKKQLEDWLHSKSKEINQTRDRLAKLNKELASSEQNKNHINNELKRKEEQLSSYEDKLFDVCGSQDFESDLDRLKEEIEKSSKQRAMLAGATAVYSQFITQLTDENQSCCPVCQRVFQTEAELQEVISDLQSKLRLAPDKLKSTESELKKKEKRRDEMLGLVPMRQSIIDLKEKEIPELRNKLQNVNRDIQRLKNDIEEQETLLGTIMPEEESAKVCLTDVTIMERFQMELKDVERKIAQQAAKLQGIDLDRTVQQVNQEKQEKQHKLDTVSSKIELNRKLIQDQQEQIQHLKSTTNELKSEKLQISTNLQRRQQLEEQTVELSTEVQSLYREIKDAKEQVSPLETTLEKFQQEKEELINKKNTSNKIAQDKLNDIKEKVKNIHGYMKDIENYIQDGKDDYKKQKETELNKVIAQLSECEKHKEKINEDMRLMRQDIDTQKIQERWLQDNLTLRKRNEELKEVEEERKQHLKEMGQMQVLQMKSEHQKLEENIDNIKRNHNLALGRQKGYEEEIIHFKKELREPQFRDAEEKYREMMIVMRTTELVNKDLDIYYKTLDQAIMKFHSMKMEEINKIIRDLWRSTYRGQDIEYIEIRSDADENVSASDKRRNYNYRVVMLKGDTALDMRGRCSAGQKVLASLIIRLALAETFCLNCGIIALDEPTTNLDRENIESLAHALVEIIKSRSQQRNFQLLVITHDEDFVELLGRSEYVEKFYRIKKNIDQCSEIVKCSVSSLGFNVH
Chain of MRN (MRE11-RAD50-NBS1) wild type (O60934 whole entry, chain 3 of 3): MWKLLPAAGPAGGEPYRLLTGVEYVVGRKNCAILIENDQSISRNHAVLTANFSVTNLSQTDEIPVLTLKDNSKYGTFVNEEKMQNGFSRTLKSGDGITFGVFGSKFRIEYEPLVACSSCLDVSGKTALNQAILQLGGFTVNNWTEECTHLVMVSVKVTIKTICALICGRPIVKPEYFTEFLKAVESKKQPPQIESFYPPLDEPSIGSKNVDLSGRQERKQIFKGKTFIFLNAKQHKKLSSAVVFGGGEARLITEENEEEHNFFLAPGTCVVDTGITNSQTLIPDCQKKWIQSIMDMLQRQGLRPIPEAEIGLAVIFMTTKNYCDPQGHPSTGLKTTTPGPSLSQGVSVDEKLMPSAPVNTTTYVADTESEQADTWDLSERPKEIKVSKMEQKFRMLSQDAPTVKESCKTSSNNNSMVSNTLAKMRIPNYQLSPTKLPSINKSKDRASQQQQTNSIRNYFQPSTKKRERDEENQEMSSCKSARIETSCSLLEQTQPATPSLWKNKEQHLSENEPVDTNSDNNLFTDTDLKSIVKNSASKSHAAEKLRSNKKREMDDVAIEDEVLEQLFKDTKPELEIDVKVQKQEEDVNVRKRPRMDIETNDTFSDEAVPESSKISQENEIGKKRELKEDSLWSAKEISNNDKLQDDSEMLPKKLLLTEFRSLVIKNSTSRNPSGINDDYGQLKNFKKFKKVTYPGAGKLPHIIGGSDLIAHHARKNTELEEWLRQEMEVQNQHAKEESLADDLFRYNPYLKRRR

B1: Sj60mer blunt dsDNA (dsDNA)
DNA 1: TTGTAAAACGACGGCCAGTGAATTCATCATCAATAATATACCTTATTTTGGGATCTATGC
DNA 2: GCATAGATCCCAAAATAAGGTATATTATTGATGATGAATTCACTGGCCGTCGTTTTACAA
In the case of B1, the binding result was “binds”.

The values above are taken from PMC7788559.
